First the molecules themselves.
B1: SHC-transforming protein 1 (Homo sapiens), P29353-1 (parent)
chain: MDLLPPKPKYNPLRNESLSSLEEGASGSTPPEELPSPSASSLGPILPPLPGDDSPTTLCSFFPRMSNLRLANPAGGRPGSKGEPGRAADDGEGIVGAAMPDSGPLPLLQDMNKLSGGGGRRTRVEGGQLGGEEWTRHGSFVNKPTRGWLHPNDKVMGPGVSYLVRYMGCVEVLQSMRALDFNTRTQVTREAISLVCEAVPGAKGATRRRKPCSRPLSSILGRSNLKFAGMPITLTVSTSSLNLMAADCKQIIANHHMQSISFASGGDPDTAEYVAYVAKDPVNQRACHILECPEGLAQDVISTIGQAFELRFKQYLRNPPKLVTPHDRMAGFDGSAWDEEEEEPPDHQYYNDFPGKEPPLGGVVDMRLREGAAPGAARPTAPNAQTPSHLGATLPVGQPVGGDPEVRKQMPPPPPCPGRELFDDPSYVNVQNLDKARQAVGGAGPPNPAINGSAPRDLFDMKPFEDALRVPPPPQSVSMAEQLRGEPWFHGKLSRREAEALLQLNGDFLVRESTTTPGQYVLTGLQSGQPKHLLLVDPEGVVRTKDHRFESVSHLISYHMDNHLPIISAGSELCLQQPVERKL

This is an account of results in IntAct's records for PubMed 16520382.

The variants in the experiment derive from B1. Conditions: with grb2_human GRB2, P62993.
Chain of grb2_human GRB2, P62993 (P62993 whole entry, looked up): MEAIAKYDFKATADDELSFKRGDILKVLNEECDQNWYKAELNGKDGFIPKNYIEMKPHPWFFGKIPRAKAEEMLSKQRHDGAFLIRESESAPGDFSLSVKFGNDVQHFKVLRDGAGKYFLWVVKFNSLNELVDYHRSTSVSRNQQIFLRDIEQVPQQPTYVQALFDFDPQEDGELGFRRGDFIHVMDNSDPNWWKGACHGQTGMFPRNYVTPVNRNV
MDLLPPKPKYNPLRNESLSSLEEGASGSTPPEELPSPSASSLGPILAPLAGDDSPTTLCSFFPRMSNLRLANPAGGRPGSKGEPGRAADDGEGIVGAAMPDSGPLPLLQDMNKLSGGGGRRTRVEGGQLGGEEWTRHGSFVNKPTRGWLHPNDKVMGPGVSYLVRYMGCVEVLQSMRALDFNTRTQVTREAISLVCEAVPGAKGATRRRKPCSRPLSSILGRSNLKFAGMPITLTVSTSSLNLMAADCKQIIANHHMQSISFASGGDPDTAEYVAYVAKDPVNQRACHILECPEGLAQDVISTIGQAFELRFKQYLRNPPKLVTPHDRMAGFDGSAWDEEEEEPPDHQYYNDFPGKEPPLGGVVDMRLREGAAPGAARPTAPNAQTPSHLGATLPVGQPVGGDPEVRKQMPPPPPCPGRELFDDPSYVNVQNLDKARQAVGGAGPPNPAINGSAPRDLFDMKPFEDALRVPPPPQSVSMAEQLRGEPWFHGKLSRREAEALLQLNGDFLVRESTTTPGQYVLTGLQSGQPKHLLLVDPEGVVRTKDHRFESVSHLISYHMDNHLPIISAGSELCLQQPVERKL [P47A;P50A]: the “effect of a mutation on the interaction” value was “decreasing interaction”.
